From patent US20250270320A1 (EUTILEX, published 2025) come the findings set out here.

Test [1] deals with T1, recombinant human PD-1-His protein (ECD) (human, UniProt Q15116 25-170).
T1 construct: extracellular domain; Used as ELISA coat and SPR partner; also called rhprotein; antigen; not shown: His tag
Description: SPR; number in the sensorgram panel without name or unit, taken as KD in M because 9.655e-9 stands for 9.7 nM in FIG 9d. On the technique in general: Surface plasmon resonance follows binding to a sensor surface in real time, without labels.

Test [2] concerns the target T2, human PD-1 expressed on cells (human, UniProt Q15116 25-288).
T2 construct: whole, on cells; also called hPD-1; 293 cell line stably expressing human PD-1
Kind of test: flow cytometry on cells overexpressing hPD-1.

Test [3] concerns the target T2, human PD-1 expressed on cells. Description: flow cytometry on hPD-1/293 cells, 2nd-hIgG-PE detection; Ctl 2nd-hIgG 0.17, cell only 0.03. The text has this:
(§1) In addition, each purified humanized antibody was bound to 293 cells expressing human PD-1 and analyzed by flow cytometry.
Background: Flow cytometry measures light scatter and fluorescence of single cells or particles in a stream.

In test [4] the target is T1, recombinant human PD-1-His protein (ECD). Kind of test: SPR, purified antibody, PD-1 antigen.
Test [5] has the same target. Description: Q-ELISA of purified antibody on recombinant human PD-1-His, drawn table. On the procedure:
For ELISA, the recombinant human PD-1-His protein was O/N coated on a 96-well ELISA plate at 4° C., and blocked with 5% non-fat skim milk at RT for 1 hr. […]

For test [6], the target named is T2, human PD-1 expressed on cells. Kind of test: flow cytometry on activated hCD8 T cells from human blood, 2nd-hIgG-PE detection; 2nd-hIgG-PE alone 1.73.
Test [7] shares this target. Description: cell-based or functional assay.
Test [8] concerns the target T1, recombinant human PD-1-His protein (ECD). Description: SPR.
Test [9] shares this target. Description: SPR, drawn table; no unit in the KD column, the Affinity column gives 9.7 nM (the text prints only 9.7 nM).
Test [10] has the same target. Description: SPR, drawn table; the column heads print no unit, units as in the table of FIG 7b.
The next test has as its target T3, mouse PD-1 antigen (mouse, UniProt Q02242 25-167, limits assumed).
T3 construct: ELISA antigen
T3 sequence (looked up): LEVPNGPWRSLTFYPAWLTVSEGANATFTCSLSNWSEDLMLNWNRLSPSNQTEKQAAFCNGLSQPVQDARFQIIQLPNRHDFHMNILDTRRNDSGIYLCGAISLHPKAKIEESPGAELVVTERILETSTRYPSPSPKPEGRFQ
Description: ELISA on the PD-1 antigen of the species, antibody 500 to 3.90625 ng in 1/2 steps. A general note: In an ELISA, binding on a coated surface is turned into a signal by an enzyme label.

In test [11] the target is T1, recombinant human PD-1-His protein (ECD). Kind of test: SPR, drawn table; no unit in the KD column, the Affinity column gives 5.8 nM (the text prints only 5.8 nM).
The target is the same in test [12]. Description: ELISA on coated recombinant human PD-1-His protein. On the procedure:
For ELISA, the recombinant human PD-1-His protein was O/N coated on a 96-well ELISA plate at 4° C., and blocked with 5% non-fat skim milk at RT for 1 hr. The antibody was treated with ½ serial dilution of each hybridoma culture medium from 100 ul at RT for 2 hr, and detected by anti-mIgG-HRP.
as §1

T1 sequence (Q15116 25-170): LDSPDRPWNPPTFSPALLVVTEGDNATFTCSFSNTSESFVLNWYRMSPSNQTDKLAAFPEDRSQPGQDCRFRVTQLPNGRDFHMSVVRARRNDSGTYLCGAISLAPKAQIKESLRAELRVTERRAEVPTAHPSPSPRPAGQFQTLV
T2 sequence (Q15116 25-288): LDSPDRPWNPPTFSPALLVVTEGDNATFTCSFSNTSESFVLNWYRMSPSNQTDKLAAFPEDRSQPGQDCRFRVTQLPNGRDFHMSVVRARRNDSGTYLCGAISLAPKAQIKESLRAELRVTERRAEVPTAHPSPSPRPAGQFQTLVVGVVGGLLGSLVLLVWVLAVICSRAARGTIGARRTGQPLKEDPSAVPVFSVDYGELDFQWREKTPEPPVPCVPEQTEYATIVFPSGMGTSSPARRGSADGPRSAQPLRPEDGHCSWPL

B1: humanized antibody 7C5 (antibody, V domains shown)
VH: EVQLVESGGGLVKPGGSLRLSCAASGFTFSSFGMSWVRQAPGKGLELVATIYSNGDYTYYPDSVKGRFTVSRDNAKNSLYLQMNSLRAEDTAVYYCARYYGNYGGYFDYWGQGTLVTVSS
VL: AIQMTQSPSSLSASVGDRVTITCKASQSVSNDVAWYQQKPGKAPKLLIYYASNRYTGVPSRFSGSGSGTDFTLTISSLQPEDFATYYCQQDYSSPPTFGGGTKVEIK
notes: Humanized antibody
For orientation: Kd means the free concentration of one partner at which half of the binding sites on the other are occupied at equilibrium, for simple one-to-one binding. In general, koff refers to a measure of how fast the partners let go of each other. Broadly, the kon is a measure of how fast the partners come together. With B1, the Kd in [1] is 211 nM. The “percent of cells in the positive quadrant” value (“percent of cells” for short) in [2] stood at 96.4%. The “percent of cells” value in test [3] stood at 95.3%. Besides, in test [4], the dissociation constant (Kd) stood at 57.2 nM, the koff came out at 0.00492 s⁻¹ and the kon was determined as 86000 M⁻¹ s⁻¹. For the same molecule, in test [5], the “OD=405, row 1 of 8 (1/2 serial dilution from 500ng)” value was 3.42; the “OD=405, row 2 of 8 (1/2 serial dilution from 500ng)” value is 3.39; the “OD=405, row 3 of 8 (1/2 serial dilution from 500ng)” value is 3.42; the “OD=405, row 4 of 8 (1/2 serial dilution from 500ng)” value was 3.34. In test [5], the “OD=405, row 5 of 8 (1/2 serial dilution from 500ng)” value is 3.22; the “OD=405, row 6 of 8 (1/2 serial dilution from 500ng)” value came out at 2.74; the “OD=405, row 7 of 8 (1/2 serial dilution from 500ng)” value was 1.96; the “OD=405, row 8 of 8 (1/2 serial dilution from 500ng)” value came to 1.16. Also, in test [6], the “percent of cells” value is 6.39%.

B2: 7C5-T15-01 (antibody, human IgG4, V domains shown)
VH: EVQLVESGGGLVKPGGSLRLSCAASGFTFSSFGMSWVRQAPGKGLELVATIYSNGDYTYYPDSVKGRFTVSRDNAKNSLYLQMNSLRAEDTAVYYCARYYGNYGGYFDYWGQGTLVTVSS
VL: AIQMTQSPSSLSASVGDRVTITCKASQSVWDDLTWYQQKPGKAPKLLIYYASNRYTGVPSRFSGSGSGTDFTLTISSLQPEDFATYYCQQDYSSPPTFGGGTKVEIK
Turning to B2, the “EC50 (read off the curve); PD-1/PD-L1 Blockade Bioassay, luciferase RAU” value in test [7] was approximately 0.7 µg/mL. For the same molecule, the Kd in [8] was determined as 9.7 nM; in test [9] it was 9.65 nM. For the same molecule, the “percent of cells” value in test [2] is 97.3%; in test [6] it was 20.3%. Besides, the koff in test [10] was found to be 0.000632 s⁻¹. In test [10], the kon came out at 65500 M⁻¹ s⁻¹. Moreover, the binding result in the test with mouse PD-1 antigen was “no binding (tested: 500 ng)”.

B3: 2B3W-T14-05 (antibody, human IgG4, V domains shown)
VH: EVQLVESGGGLVQPGGSLRLSCAASGFVFSNYDMSWVRQAPGKGLEWVAYITIGGGTTYYPDTVKGRFTISRDNAKNSLYLQMNSLRAEDTAVYYCARWRYDPLFAMDYWGQGTTVTVSS
VL: DIVLTQTPLSLSVTPGQPASISCRASESVTDYGISFMNWFLQKPGQPPQLLIYAASNQGSGVPDRFSGSGSGTDFTLKISRVEAEDVGVYYCQQSKEVPWTFGQGTKVEIK
notes: also called EU135-T14.05
As for B3, the “EC50 (read off the curve); PD-1/PD-L1 Blockade Bioassay, luciferase RAU” value in [7] was approximately 0.8 µg/mL. In addition, in test [8], the dissociation constant Kd was found to be 5.8 nM. Also, in [11], the Kd is 5.79 nM. Further, in test [10], the koff was 0.000508 s⁻¹ and the kon stood at 87800 M⁻¹ s⁻¹. Further, the “percent of cells” value in test [6] came out at 17%. Besides, the binding result with mouse PD-1 antigen was “no binding (tested: 500 ng)”.

B4: humanized antibody 2B3R (antibody, V domains shown)
VH: EVQLVESGGGLVQPGGSLRLSCAASGFVFSNYDMSWVRQAPGKGLEWVAYITIGGGTTYYPDTVKGRFTISRDNAKNSLYLQMNSLRAEDTAVYYCARRVYDPLYAMDYWGQGTTVTVSS
VL: DIVLTQTPLSLSVTPGQPASISCRASESVDNYGISFMNWFLQKPGQPPQLLIYAASNQGSGVPDRFSGSGSGTDFTLKISRVEAEDVGVYYCQQSKEVPWTFGQGTKVEIK
notes: Humanized antibody
For B4, the binding result in [12] is recorded as “no binding”.
